The record followed here is the supplement of paper PMC12042874.

± gives the uncertainty stated by the source.

The data set in a line: amyloid nucleation score (Sup35N fusion, yeast selection) (log enrichment); library NNK3; higher = more nucleation; inactive = no reads after selection. An outline of the steps: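 After 24 hours of induction with 100 μM copper sulfate, psi-negative yeast expressing peptides of 20 random codons fused to Sup35N were grown for 7 days at 30°C on medium lacking adenine and uracil. Input and output plasmid inserts were sequenced with Illumina, and sequences with under 100 input reads were discarded. Scores for nucleation are the DiMSum log enrichment of output over input reads, centred on the mode score of non-aggregating sequences.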
Turning to PLCATFKDTNRNNTVYRSLF, the amyloid nucleation score entry is “inactive”.
In the case of PLCNCVNRENSDGMMWGYRE it was “inactive”; in that of PLDSECEKDGHDTPYDYVVL, “inactive”.
Take PLEVLAKFFWDDWATHSMDL: the amyloid nucleation score result is “inactive”.
The substance PLEWNNGVYISGWLWVLVSW registered an amyloid nucleation score of -0.518 ± 0.63.
For PLFGRCHRWGVTMQYSLLIG, the amyloid nucleation score result was “inactive”.
On to PLLFSRVSLDL, for which the amyloid nucleation score entry was “inactive”.
Regarding PLRLCNPLSGFVPLLFTAFR, the amyloid nucleation score entry was “inactive”.
In the case of PLSFIKRRFRRLAGLSRSSA it was “inactive”.
In the case of PLSMSHVGAGLKF it was “inactive”; in that of PLSPFYAAWDYMILCVG, “inactive”; in that of PLVMGFIRVHCIFRRRFG, “inactive”.
With PLWHTWFGYAE, the amyloid nucleation score is 0.494 ± 0.24.
In turn, PNAEGFFSVSGFCVVLNQSM displayed an amyloid nucleation score of 1.34 ± 0.087.
With PNHYSYQCALLKRSTEFRHA, the amyloid nucleation score entry is “inactive”.
In turn, PNHYWFVAQFWLFSLTACHR showed an amyloid nucleation score of 0.02 ± 0.77.
As for PNRFNIIHVKFRFSFYATLT, the amyloid nucleation score entry was “inactive”.
In the case of PPLPRFSLSFGRWLFLICHE it was “inactive”; in that of PQDQDDVKVLSRGVRYVWGH, “inactive”.
Take PRCISSPRSPSLNVWVLKSE: the amyloid nucleation score entry was “inactive”.
Turning to PRIWLVAFQTKTCYPSGGWL, the amyloid nucleation score was -1.47 ± 1.9.
In the case of PRPLGLFTSYDNGLGYRQGQ it was “inactive”.
For PRPWRL, the amyloid nucleation score entry is “inactive”.
Regarding PRWLPVDGYEDSGVVEDKES, the amyloid nucleation score result was “inactive”.
On to PRYAVALSLD, for which the amyloid nucleation score entry is “inactive”.
For PSFFRKLFLPFASYLTMCGE, the amyloid nucleation score result was “inactive”.
Take PSFLNSMGS: the amyloid nucleation score entry is “inactive”.
As for PSLQRSQRVSEFRTM, the amyloid nucleation score result was “inactive”.
For the substance PSMKL, the amyloid nucleation score result is “inactive”.
With PSMSADGADLSGCQLIMVLS, the amyloid nucleation score result is “inactive”.
With PSTDSINDV, the amyloid nucleation score entry was “inactive”.
As to PSYEAASK, the amyloid nucleation score result is “inactive”.
For PTAVVVGYHSYVTFRAVKCV, the amyloid nucleation score entry is “inactive”.
For PTEVYEATYCHFTNLL, the amyloid nucleation score entry was “inactive”.
With PTFFTSVLGFNYRVLYRIAV, the amyloid nucleation score result was “inactive”.
As for PTIQQDWIAFYIHSCEFLVL, the amyloid nucleation score entry is “inactive”.
For PTIYRMFGVGQMVMN, the amyloid nucleation score entry is “inactive”.
In the case of PTLILWDFCCLVLVEAFYGC, the amyloid nucleation score result is “inactive”.
Turning to PTNDAYVVVMD, the amyloid nucleation score entry is “inactive”.
PTTFNVFLGLWCVGTYCTWL gave an amyloid nucleation score of 0.997 ± 0.24.
For PVLSIYWTGPLKFNYIMMGL, the amyloid nucleation score entry was “inactive”.
PVNEFYYLFCKRVYPCALQI returned an amyloid nucleation score of 0.295 ± 0.53.
PVRSPAACGDRLSVRVANME: the amyloid nucleation score result is “inactive”.
In the case of PVTIFKETCWP it was “inactive”; in that of PVVRQRNALILCLSHMSCLE, 2.15 ± 0.063.
With PVWFTYQHHCWVKLICV, the amyloid nucleation score result was “inactive”.
As for PWDDYTAQIGLYSFPPWLYV, the amyloid nucleation score result was “inactive”.
In the case of PWDQDGGSTYSKGGPSNWEF it was “inactive”; in that of PYPESVFQWFEYIPFYCSVR, “inactive”.
Consider PYSISRLTSYDPFGHVPGTR, for which the amyloid nucleation score result was “inactive”.
Consider PYSLPSP, for which the amyloid nucleation score entry is “inactive”.
In the case of PYTWAMHLNLLITTDR it was -0.032 ± 0.54.
On to QALTFIMWETDTSHGTCLNG, for which the amyloid nucleation score is 1.46 ± 0.07.
For the substance QDPMLTCGGRWDFTCAGEVP, the amyloid nucleation score entry is “inactive”.
As for QEGWCWSYLVAGGWV, the amyloid nucleation score result was “inactive”.
As for QELMEKDGRASKDQAWASIV, the amyloid nucleation score entry is “inactive”.
Take QFDFVLPVGYVFGDGYVLWV: the amyloid nucleation score result is “inactive”.
For the substance QFLLGSWYRLLRSGTVNSPS, the amyloid nucleation score result was “inactive”.
QFLLGWNPNTSDLVLTFVQQ: the amyloid nucleation score turned out to be 1.15 ± 0.14.
As for QFPSSQN, the amyloid nucleation score entry is “inactive”.
Turning to QFTHTNIFTND, the amyloid nucleation score entry is “inactive”.
Take QGGGNIDSSVVTDSSDVVYS: the amyloid nucleation score result was “inactive”.
Regarding QGGGVCPCPKMVSFQMMYVI, the amyloid nucleation score result was “inactive”.
For QGNAVHRDASSGWMNSAFDR, the amyloid nucleation score entry is “inactive”.
For the substance QHSLGG, the amyloid nucleation score entry was “inactive”.
In the case of QIGFCS it was “inactive”; in that of QIIYISSLFTYDSYYKFRLH, “inactive”; in that of QILVLHIR, 1.71 ± 0.079.
QINMYMVNSRWVTFGIGMLS: the amyloid nucleation score stood at 2.37 ± 0.055.
As for QIVRLTSNIPRTAPSWSFH, the amyloid nucleation score entry was “inactive”.
Take QIVYSLILGDPPAASVWEKS: the amyloid nucleation score result is “inactive”.
In the case of QKMFVQDLILVLPVISRLV it was “inactive”.
For the substance QLALPHKPHWGNWL, the amyloid nucleation score entry is “inactive”.
As to QLIWYTACKASIDVNRHGSG, the amyloid nucleation score entry was “inactive”.
QLKHWTEIKQVLVVSREWVH had an amyloid nucleation score of -0.395 ± 1.3.
In the case of QLLFPGLWESATRILCENFM, the amyloid nucleation score result was “inactive”.
Substance QLLHDGNLNVGIFMRYSQGR had an amyloid nucleation score of 1.29 ± 0.093.
QLLSLKWYYVTRILCARYAD: the amyloid nucleation score result is “inactive”.
With QLLSLVKISNKLTVI, the amyloid nucleation score result was “inactive”.
As to QMVIHTVLGLKSLCVMFPSR, the amyloid nucleation score worked out at 1.04 ± 0.088.
Turning to QNCVTDMSKNLGIVREFSCS, the amyloid nucleation score entry is “inactive”.
In the case of QNECLGHQNWLNVVLKVAMM it was “inactive”; in that of QNNTLGVSLVTFRGLVE, “inactive”.
Consider QPAFPWTYVFLLYHGW, for which the amyloid nucleation score result is “inactive”.
In the case of QPVICNIRSSRCV it was “inactive”; in that of QPYIVFISGFVSSLWESVRK, “inactive”.
Substance QQFVTFVIFKYTVSVAMGAG came in with an amyloid nucleation score of -0.478 ± 0.88.
Consider QQWWLLFSLC, for which the amyloid nucleation score entry is “inactive”.
Consider QRDTSGEYGIVWYYVFNRTG, for which the amyloid nucleation score result is “inactive”.
Turning to QRITDKMSYADSLLRSST, the amyloid nucleation score result is “inactive”.
On to QRLIRMSFSMAHMTSNFVMV, for which the amyloid nucleation score result was “inactive”.
For QRSTKPW, the amyloid nucleation score was -0.586 ± 1.9.
In the case of QSASFRNGFKLLLMTS it was “inactive”; in that of QSCCF, “inactive”; in that of QSGTLLGLLHQANYLGYAF, “inactive”.
In the case of QSLLDLMSFLMCV it was “inactive”.
